{"source": "patent US9522171B2", "about": "(priority 2010, dated 2016)", "origin": "cited, not measured here", "key": {"C5 [1]": {"target": "T1, C5 (Homo sapiens, UniProt P01031)", "T1 construct": "from tissue; host or cells: human serum", "T1 sequence (P01031 19-1676)": "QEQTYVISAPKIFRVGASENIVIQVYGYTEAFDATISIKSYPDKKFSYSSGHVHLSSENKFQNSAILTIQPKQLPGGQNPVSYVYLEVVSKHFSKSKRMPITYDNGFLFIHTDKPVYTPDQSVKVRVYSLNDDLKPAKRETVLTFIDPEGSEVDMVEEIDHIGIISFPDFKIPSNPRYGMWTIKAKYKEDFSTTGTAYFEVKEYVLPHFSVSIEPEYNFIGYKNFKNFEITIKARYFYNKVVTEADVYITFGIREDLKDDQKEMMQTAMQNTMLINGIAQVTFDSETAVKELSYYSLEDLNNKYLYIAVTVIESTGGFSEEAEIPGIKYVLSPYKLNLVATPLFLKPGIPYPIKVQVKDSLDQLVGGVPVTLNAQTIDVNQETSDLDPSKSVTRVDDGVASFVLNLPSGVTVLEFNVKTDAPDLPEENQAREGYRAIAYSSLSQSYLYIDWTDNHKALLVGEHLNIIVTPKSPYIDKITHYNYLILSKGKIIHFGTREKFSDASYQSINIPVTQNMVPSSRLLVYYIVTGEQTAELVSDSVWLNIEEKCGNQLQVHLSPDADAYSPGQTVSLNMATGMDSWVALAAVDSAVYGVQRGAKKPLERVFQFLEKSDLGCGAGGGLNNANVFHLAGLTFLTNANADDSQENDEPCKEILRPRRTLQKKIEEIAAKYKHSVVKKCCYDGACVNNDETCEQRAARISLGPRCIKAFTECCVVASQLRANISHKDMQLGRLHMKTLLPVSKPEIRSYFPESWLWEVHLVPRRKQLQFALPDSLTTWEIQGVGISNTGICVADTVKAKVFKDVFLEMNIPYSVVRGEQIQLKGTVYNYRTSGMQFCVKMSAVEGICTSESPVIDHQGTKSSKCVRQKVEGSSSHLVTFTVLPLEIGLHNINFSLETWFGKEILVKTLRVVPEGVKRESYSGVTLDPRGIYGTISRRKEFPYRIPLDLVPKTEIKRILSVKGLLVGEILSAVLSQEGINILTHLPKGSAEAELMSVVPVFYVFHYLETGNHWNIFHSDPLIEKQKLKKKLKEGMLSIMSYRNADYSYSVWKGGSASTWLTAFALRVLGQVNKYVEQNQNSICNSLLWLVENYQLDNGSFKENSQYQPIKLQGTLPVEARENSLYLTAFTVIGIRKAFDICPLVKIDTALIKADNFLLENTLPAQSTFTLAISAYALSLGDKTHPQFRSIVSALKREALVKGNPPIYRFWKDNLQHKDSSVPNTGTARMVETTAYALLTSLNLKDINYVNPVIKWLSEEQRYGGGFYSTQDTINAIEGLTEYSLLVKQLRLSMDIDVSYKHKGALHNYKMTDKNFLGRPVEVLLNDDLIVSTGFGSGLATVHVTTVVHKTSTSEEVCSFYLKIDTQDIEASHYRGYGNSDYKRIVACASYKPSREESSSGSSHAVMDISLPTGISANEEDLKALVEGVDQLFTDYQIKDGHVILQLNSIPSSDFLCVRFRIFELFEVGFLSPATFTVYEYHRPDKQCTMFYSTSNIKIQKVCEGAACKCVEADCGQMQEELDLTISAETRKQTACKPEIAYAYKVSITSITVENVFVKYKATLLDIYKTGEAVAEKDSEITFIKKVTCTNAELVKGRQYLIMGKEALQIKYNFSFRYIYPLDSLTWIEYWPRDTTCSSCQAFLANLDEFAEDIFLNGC", "conditions": "human serum; cited from earlier work"}, "C5 [2]": {"target": "T2, C5 (Rattus norvegicus, UniProt P08650)", "T2 construct": "from tissue; host or cells: rat serum", "T2 sequence (P08650 19-1681)": "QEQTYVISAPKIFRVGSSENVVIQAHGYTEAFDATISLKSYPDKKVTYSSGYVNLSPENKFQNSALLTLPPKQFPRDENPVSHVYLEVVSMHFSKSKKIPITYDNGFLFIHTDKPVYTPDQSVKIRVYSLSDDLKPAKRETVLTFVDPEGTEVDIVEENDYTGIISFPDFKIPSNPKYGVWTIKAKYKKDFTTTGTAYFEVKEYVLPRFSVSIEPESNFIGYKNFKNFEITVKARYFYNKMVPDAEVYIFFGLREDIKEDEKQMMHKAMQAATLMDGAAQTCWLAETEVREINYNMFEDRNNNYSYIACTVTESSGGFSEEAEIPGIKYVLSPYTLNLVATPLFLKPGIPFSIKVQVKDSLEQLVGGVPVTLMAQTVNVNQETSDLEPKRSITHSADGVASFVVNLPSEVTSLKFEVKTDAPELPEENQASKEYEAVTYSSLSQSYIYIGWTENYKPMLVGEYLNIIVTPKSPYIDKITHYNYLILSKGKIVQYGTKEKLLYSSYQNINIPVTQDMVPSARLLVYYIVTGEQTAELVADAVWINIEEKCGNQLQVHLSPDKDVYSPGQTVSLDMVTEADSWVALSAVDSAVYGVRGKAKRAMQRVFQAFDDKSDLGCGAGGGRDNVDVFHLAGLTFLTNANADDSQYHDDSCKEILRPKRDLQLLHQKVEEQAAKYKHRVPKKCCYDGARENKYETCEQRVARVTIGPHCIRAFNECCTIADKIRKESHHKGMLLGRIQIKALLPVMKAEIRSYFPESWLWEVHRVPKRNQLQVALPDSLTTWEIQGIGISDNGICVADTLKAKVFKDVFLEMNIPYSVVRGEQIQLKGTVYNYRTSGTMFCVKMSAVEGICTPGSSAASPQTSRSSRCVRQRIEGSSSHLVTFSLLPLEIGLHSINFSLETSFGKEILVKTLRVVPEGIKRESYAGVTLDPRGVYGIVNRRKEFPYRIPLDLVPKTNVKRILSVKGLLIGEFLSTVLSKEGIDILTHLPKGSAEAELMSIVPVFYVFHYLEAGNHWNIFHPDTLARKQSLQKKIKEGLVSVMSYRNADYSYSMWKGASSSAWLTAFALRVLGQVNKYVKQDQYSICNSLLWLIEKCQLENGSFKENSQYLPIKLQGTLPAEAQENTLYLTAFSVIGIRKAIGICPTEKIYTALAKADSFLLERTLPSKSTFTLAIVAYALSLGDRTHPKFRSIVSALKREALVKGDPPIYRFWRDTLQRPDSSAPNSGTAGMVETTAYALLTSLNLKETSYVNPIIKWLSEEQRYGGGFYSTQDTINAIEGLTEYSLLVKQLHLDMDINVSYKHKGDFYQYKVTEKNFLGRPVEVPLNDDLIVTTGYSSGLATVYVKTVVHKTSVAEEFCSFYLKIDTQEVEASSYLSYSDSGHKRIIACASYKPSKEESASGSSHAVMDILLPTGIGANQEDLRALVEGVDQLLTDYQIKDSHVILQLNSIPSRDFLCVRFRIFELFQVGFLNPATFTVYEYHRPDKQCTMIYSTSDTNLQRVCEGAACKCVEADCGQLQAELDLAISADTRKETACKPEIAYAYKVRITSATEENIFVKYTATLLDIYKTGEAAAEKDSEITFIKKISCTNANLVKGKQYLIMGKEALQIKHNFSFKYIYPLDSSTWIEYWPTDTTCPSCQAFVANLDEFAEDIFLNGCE", "conditions": "rat serum; cited from earlier work"}, "[3]": {"tested_on": "alternative, classical and lectin complement pathways", "conditions": "cited from earlier work"}, "C5 [4]": {"target": "T3, C5 (Mus musculus, UniProt P06684)", "T3 construct": "from tissue; host or cells: mouse serum", "T3 sequence (P06684 19-1680)": "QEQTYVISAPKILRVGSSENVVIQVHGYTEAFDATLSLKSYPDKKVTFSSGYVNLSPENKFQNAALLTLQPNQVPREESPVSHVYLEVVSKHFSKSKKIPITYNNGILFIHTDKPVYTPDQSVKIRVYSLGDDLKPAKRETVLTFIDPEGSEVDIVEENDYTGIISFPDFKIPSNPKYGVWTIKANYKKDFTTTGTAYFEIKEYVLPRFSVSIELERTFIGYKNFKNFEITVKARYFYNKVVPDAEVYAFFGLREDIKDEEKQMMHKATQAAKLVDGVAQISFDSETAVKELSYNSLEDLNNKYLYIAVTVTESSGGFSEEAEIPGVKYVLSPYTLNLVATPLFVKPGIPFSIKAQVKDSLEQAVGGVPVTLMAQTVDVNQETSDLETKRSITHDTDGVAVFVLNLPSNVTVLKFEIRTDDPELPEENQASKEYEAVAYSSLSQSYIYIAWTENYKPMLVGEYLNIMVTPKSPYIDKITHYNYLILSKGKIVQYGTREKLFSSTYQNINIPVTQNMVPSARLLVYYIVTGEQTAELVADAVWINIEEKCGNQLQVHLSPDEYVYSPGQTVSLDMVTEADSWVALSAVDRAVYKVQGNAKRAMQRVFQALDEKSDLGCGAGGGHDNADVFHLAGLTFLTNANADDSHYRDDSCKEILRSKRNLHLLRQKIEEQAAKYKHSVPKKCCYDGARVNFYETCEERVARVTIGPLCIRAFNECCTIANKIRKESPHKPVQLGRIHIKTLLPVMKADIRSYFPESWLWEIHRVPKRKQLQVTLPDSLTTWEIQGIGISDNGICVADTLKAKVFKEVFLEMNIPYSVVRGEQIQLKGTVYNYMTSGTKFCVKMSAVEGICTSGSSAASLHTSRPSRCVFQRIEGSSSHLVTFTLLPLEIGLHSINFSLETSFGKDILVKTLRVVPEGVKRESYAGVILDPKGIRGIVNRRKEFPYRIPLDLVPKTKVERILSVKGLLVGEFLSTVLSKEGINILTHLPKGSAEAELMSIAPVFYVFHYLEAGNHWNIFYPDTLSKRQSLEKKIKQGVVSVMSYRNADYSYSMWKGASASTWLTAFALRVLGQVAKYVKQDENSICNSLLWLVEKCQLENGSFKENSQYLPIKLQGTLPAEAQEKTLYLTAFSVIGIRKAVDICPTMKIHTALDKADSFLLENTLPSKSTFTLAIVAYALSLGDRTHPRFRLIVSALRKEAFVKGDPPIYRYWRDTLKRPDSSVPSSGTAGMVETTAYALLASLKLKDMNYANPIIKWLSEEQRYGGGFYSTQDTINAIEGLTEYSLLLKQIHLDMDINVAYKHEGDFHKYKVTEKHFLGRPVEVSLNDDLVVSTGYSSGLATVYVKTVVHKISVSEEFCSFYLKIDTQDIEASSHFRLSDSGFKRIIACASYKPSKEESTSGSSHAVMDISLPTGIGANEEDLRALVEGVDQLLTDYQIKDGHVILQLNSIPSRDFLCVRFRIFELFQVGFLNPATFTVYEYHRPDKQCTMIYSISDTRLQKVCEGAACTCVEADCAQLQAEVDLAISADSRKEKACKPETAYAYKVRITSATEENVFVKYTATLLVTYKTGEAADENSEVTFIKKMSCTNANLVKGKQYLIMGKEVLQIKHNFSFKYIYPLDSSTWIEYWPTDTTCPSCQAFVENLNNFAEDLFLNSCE", "conditions": "mouse serum; cited from earlier work"}}, "data": [{"substance": "EV576: Lipocalin protein from salivary glands of the tick Ornithodoros moubata, sequence of FIG. 2; binds complement C5 and LTB4", "values": [{"measurement": "IC50 for binding C5 and preventing its cleavage by C5 convertase", "setting": "C5 [1]", "result": "approximately 0.02 mg/ml"}, {"measurement": "IC50 for binding C5 and preventing its cleavage by C5 convertase", "setting": "C5 [2]", "result": "approximately 0.02 mg/ml"}, {"measurement": "inhibition of the complement system", "setting": "[3]", "result": "inhibits the alternative, classical and lectin complement pathways"}, {"measurement": "IC50 for binding C5 and preventing its cleavage by C5 convertase", "setting": "C5 [4]", "result": "approximately 0.02 mg/ml"}]}]}
